Assay: In vivo cis-α-irone production from glucose/glycerol in strain 2O31 cultures
Assay type: cell-based, Escherichia coli
Details: pMT plasmid transformed into strain 2O31; 2 days
Text: The advantage of in vivo biotransformation is that microbial cells can regenerate expensive co-factors rendering the scale-up bioprocess more cost-effective. […] Thus, pMT was incorporated into our psi-ionone producing microbe^7,8, to synthesize cis-α-irone from cheap renewable carbon sources (glucose/glycerol) (FIG. 4 and FIG. 19). To achieve high productivity, the psi-ionone production was first optimized by multidimensional heuristic process (MHP)^15, and strain 2O31 was identified to be the highest producer for psi-ionone (FIG. 19b). 2O31 was used as the base strain to probe cis-α-irone production in vivo (Table 5). Moreover, to improve the plasmid stability, auxotrophic strain was used with chemically defined media^1. The plasmid carrying pMT1, pMT7 or pMT10 was transformed into the strain 2O31, and produced less than 0.01, about 2 and about 3 mg/L cis-α-irone respectively in 2 days (FIG. 19d). To further optimize irone production with pMT10, three different culture conditions were tested: no methionine or dodecane added (control); 10 mM methionine added; 10 mM methionine and 20% dodecane added. In the control reaction, approximately 4.8 mg/L or 0.85 mg/L/OD cis-α-irone was produced after 3-day incubation (2O31-pMT10, FIGS. 4c and 4e). […] Lastly, when both methionine and dodecane were added, psi-ionone was accumulated in the organic layer and only ˜0.3 mg/L or ˜0.05 mg/L/OD cis-α-irone was produced (2O31-pMT10, FIGS. 4c, d and e). […] The limited methylation efficiency might be due to insufficient cofactor or SAH inhibition. […] In fact, the total amount of psi-ionone and cis-α-irone decreased (FIG. 4c, and d). As SAM biosynthesis is regulated by metJ in E. coli^16,17, the aforementioned six reactions were subsequently examined under metJ deleted genetic background (2O31, ΔmetJ). An increase in cis-α-irone titer to ˜5.7 mg/L was produced by 2O31 ΔmetJ-pMT10 strain with 10 mM methionine supplementation (FIG. 4c). An increase in specific cis-α-irone titer to ˜1.2 mg/L/OD was produced by 2O31 ΔmetJ-pMT10r strain without methionine supplementation (FIG. 4d). […]

B1: pMT7: pMT1 with Y200F S182E L273V L180A A202L Y65F (protein)
chain: MPQEARTPQQQVTADEVGDWYDKFGEVYHLTLGESVHCGLWFPPDAPVPQDMELVTMSSQAQDRFTDYLIETLDPKAGQHLLDIGCGTGRTALKAARQRGIAVTGVAVSKEQIAAANRLAAGHGLTERLTFEVADAMRLPYEDESFDCAWAIESLCHMDRAKALGEAWRVLKPGGDLLVAEEVVTEELTEPETALFETLFALNVPPRLGEFFDIVSGAGFHTLSLKDLSANLAMTMNVFALGVYSRRAEFTERFGAEFVDGLLAGLGSAQETVIRKTRFFMATLRKPAV
modifications: Modified from pMT1
notes: pMT1 with Y200F S182E L273V L180A A202L Y65F
  cis-α-irone produced: about 2 mg/L

B2: pMT10: pMT1 with Y200F S182E L273V L180A A202L Y65F C156A T91P (protein)
chain: MPQEARTPQQQVTADEVGDWYDKFGEVYHLTLGESVHCGLWFPPDAPVPQDMELVTMSSQAQDRFTDYLIETLDPKAGQHLLDIGCGTGRPALKAARQRGIAVTGVAVSKEQIAAANRLAAGHGLTERLTFEVADAMRLPYEDESFDCAWAIESLAHMDRAKALGEAWRVLKPGGDLLVAEEVVTEELTEPETALFETLFALNVPPRLGEFFDIVSGAGFHTLSLKDLSANLAMTMNVFALGVYSRRAEFTERFGAEFVDGLLAGLGSAQETVIRKTRFFMATLRKPAV
modifications: Modified from pMT1
notes: pMT1 with Y200F S182E L273V L180A A202L Y65F C156A T91P
  cis-α-irone produced: about 3 mg/L

From US20240240209A1, “SYNTHESIS OF ENANTIOPURE CIS-A-IRONE FROM A RENEWABLE CARBON SOURCE” (Agency for Science, Technology and Research, priority 2021, published 2024)
